T1: mature form of human VEGF-C (human, UniProt P49767 103-227)
T1 sequence: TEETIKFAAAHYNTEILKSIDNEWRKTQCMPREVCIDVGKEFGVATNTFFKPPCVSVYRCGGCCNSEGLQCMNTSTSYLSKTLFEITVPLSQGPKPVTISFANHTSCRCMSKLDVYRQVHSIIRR


Biological target: T1, mature form of human VEGF-C
Experiment: cell-based or functional assay

Row | Molecule | VEGF-C dependent viability (Ba/F3 VEGFR-3/EpoR, MTT) (fold molar excess) | VEGF-C-dependent cell survival (Ba/F3 VEGFR-3/EpoR, MTT)
1 | VEGFR-2-Ig (Fc fusion) | 10 | 
2 | VEGFR-3-Ig fusion protein (first three Ig-homology domains of VEGFR-3 and IgG Fc domain) (Fc fusion, not shown: a dimerising Fc or GST) YSMTPPTLNITEESHVIDTGDSLSISCRGQHPLEWAWPGAQEAPATGDKDSEDTGVVRDCEGTDARPYCKVLLLHEVHANDTGSYVCYYKYIKARIEGTTAASSYVFVRDFEQPFINKPDTLLVNRKDAMWVPCLVSIPGLNVTLRSQSSVLWPDGQEVVWDDRRGMLVSTPLLHDALYLQCETTWGDQDFLSNPFLVHITGNELYDIQLLPRKSLELLVGEKLVLNCTVWAEFNSGVTFDWDYPGKQAERGKWVPERRSQQTHTELSSILTIHNVSQHDLGSYVCKANNGIQRFRESTEVIVHE |  | 0.5 molar ratio (VEGFR-3-Ig:VEGF-C)

Reference: patent US20150141622A1 (published 2015)
